{"source": "patent US20250034272A1", "about": "“COMPOSITIONS AND METHODS FOR TREATING SEVERE ASTHMA” (Equillium, Inc., priority 2018, published 2025)", "origin": "cited, not measured here", "molecules": {"B1": {"name": "EQ001: humanized anti-CD6 monoclonal antibody, VH/VK SEQ ID NOS: 1 and 2; itolizumab produced in CHO cells (antibody, V domains shown)", "VH": "EVQLVESGGGLVKPGGSLKLSCAASGFKFSRYAMSWVRQAPGKRLEWVATISSGGSYIYYPDSVKGRFTISRDNVKNTLYLQMSSLRSEDTAMYYCARRDYDLDYFDSWGQGTLVTVSS", "VL": "DIQMTQSPSSLSASVGDRVTITCKASRDIRSYLTWYQQKPGKAPKTLIYYATSLADGVPSRFSGSGSGQDYSLTISSLESDDTATYYCLQHGESPFTLGSGTKLEIK", "modifications": "humanized T1h VH sequence; humanized T1h VL sequence", "notes": "itolizumab produced in CHO cells"}}, "test_system": "Th1/Th17 type T cells", "conditions": "stated as known ability", "data": [{"molecule": "B1", "values": [{"measurement": "inhibition of activation and migration of Th1/Th17 type T cells", "result": "inhibit activation and migration"}]}]}
